Measured values published in PMC7379371.

Experiments:
[1] = target: chimeric antibody I3.1 Fab (human); assay: BLI; fortéBIO BLItz; Fab (0.2 mg/mL) immobilised on Anti-Human Fab-CH1 second generation biosensors; gp120 core in solution at three or more concentrations (9.6 to 110 μM); 10 mM Tris, pH 7.5, 100 mM NaCl; global fit of at least three measurements
[2] = target: chimeric antibody I3.1 Fab (human); assay: BLI; […]; Fab (0.2 mg/mL) […] (9.6 to 110 μM); 10 mM Tris, pH 7.5, 100 mM NaCl; […]

chimeric antibody I3.1 Fab (human), sequence (heavy, as listed by the source, chain 1 of 2): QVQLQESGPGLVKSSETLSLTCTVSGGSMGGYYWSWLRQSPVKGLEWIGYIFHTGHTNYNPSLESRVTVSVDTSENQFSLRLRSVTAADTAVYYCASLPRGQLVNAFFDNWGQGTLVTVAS
chimeric antibody I3.1 Fab (human), sequence (light, as listed by the source, chain 2 of 2): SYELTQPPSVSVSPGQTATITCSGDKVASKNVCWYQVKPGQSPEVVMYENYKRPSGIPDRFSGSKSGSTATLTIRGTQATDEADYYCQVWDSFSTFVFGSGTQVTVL

Substance | Kd [1] [µM] | Kd [2] [µM]
92UG037.8 gp120 core WT (domain or fragment) | 3.28 | 
CH505 T/F gp120 core WT (domain or fragment) |  | 1.98
